Results reported in PMC7666158.

Assays:
[1] = target: JNK1-dc20 (JNK1 with the C-terminal 20 residues truncated) (human) (UniProt P45983); test: ITC; as a5, with 2 mM EDTA
[2] = target: JNK1-dc20 (JNK1 with the C-terminal 20 residues truncated) (human) (UniProt P45983); test: fluorescence polarisation; competitive: 50 nM CF-evJIP with JNK1 at ~60–80% complex, titrated with unlabeled competitor; 20 mM Tris pH 8.0, 100 mM NaCl, 0.05% Brij35P, 2 mM TCEP; 384-well plates
[3] = target: JNK1-dc20 (JNK1 where the C-terminal 20 residues are truncated) (human) (UniProt P45983); test: fluorescence polarisation; competitive titration: JNK1 with CF-evJIP (50 nM; JNK1 at ~60-80% complex formation) titrated with unlabeled MBP-ATF2(19-100) constructs; data fit to a competition binding equation; 20 mM Tris pH 8.0, 100 mM NaCl, 0.05% Brij35P, 2 mM TCEP
[4] = target: pp-JNK1 (activated, phosphorylated JNK1) (human) (UniProt P45983); test: in vitro kinase assay fitted with a kinetic model; 5 nM pp-JNK or pp-p38, MBP-ATF2(19-100) substrate 0.5-100 uM, 5 mM ATP, kinase buffer; p-T71 and p-T69/T71 by quantitative dot-blots; binding rates (kon, koff) and reaction rates fitted simultaneously with the BioNetGen model (PyBioNetFit)

| Binder | Kd [3] | other results |
| --- | --- | --- |
| MSDDKPFLCTAPGCGQRFTNEDHLAVHKHKHEMTLKFGPA (domain or fragment) [ATF2(19–58)-His6 (MBP removed, for ITC)] |  | fold decrease in binding with EDTA against no EDTA [1]: 10 fold |
| MSDDKPFLCTAPGCGQRFTNEDHLAVHKHKHEMTLKFGPA (domain or fragment) [ATF2(19–58) as used in the competitive fluorescence polarisation assay] |  | Kd [2]: 5 µM |
| MBP-ATF2(19-100)-WT (domain or fragment) MSDDKPFLCTAPGCGQRFTNEDHLAVHKHKHEMTLKFGPARNDSVIVADQTPTPTRFLKNCEEVGLFNELASPFENEFKKAS | 3.5 µM | Kd [4]: 3.5 µM; koff [4]: 19.6 s⁻¹; kon [4]: 5.6e+06 M⁻¹ s⁻¹ |
| MBP-ATF2(19–100) K48E (domain or fragment) MSDDKPFLCTAPGCGQRFTNEDHLAVHKHEHEMTLKFGPARNDSVIVADQTPTPTRFLKNCEEVGLFNELASPFENEFKKAS |  | fold decrease in binding against the wild type [2]: 10 fold |

Now from value to binder, other results behind:

| Kd [3] | Binder | other results |
| --- | --- | --- |
| 56.2 µM | MBP-ATF2-(19-100)-V44E (domain or fragment) MSDDKPFLCTAPGCGQRFTNEDHLAEHKHKHEMTLKFGPARNDSVIVADQTPTPTRFLKNCEEVGLFNELASPFENEFKKAS |  |
| 0.05 µM | MBP-ATF2-(19-100)-Q34R/H47R (domain or fragment) MSDDKPFLCTAPGCGRRFTNEDHLAVHKRKHEMTLKFGPARNDSVIVADQTPTPTRFLKNCEEVGLFNELASPFENEFKKAS |  |
| 39.3 µM | MBP-ATF2-(19-100)-H47E (domain or fragment) MSDDKPFLCTAPGCGQRFTNEDHLAVHKEKHEMTLKFGPARNDSVIVADQTPTPTRFLKNCEEVGLFNELASPFENEFKKAS |  |
| 0.26 µM | MBP-ATF2-(19-100)-H47R (domain or fragment) MSDDKPFLCTAPGCGQRFTNEDHLAVHKRKHEMTLKFGPARNDSVIVADQTPTPTRFLKNCEEVGLFNELASPFENEFKKAS |  |
| 15.5 µM | MBP-ATF2-(19-100)-V44A (domain or fragment) MSDDKPFLCTAPGCGQRFTNEDHLAAHKHKHEMTLKFGPARNDSVIVADQTPTPTRFLKNCEEVGLFNELASPFENEFKKAS |  |
| 0.87 µM | MBP-ATF2-(19-100)-Q34R (domain or fragment) MSDDKPFLCTAPGCGRRFTNEDHLAVHKHKHEMTLKFGPARNDSVIVADQTPTPTRFLKNCEEVGLFNELASPFENEFKKAS |  |
